Test results from paper PMC4030953, “Pyranose Dehydrogenase from Agaricus campestris and Agaricus xanthoderma: Characterization and Applications in Carbohydrate Conversions” (Biomolecules, 2013).

How the values were obtained:
Test in all cases: spectrophotometric electron acceptor reduction
Details in all cases: apparent, 25 mM D-glucose, pH 4, 30 °C
[1] = substrate: O=C1C(Cl)=CC(=Nc2ccc(O)cc2)C=C1Cl; type: biochemical, Agaricus campestris
Excerpt: (§1) spectrophotometric electron acceptor reduction on AcPDH

[2] = substrate: O=C1C=CC(=O)C=C1; type: biochemical, Agaricus campestris
Excerpt: as §1

[3] = substrate: O=C1C(Cl)=CC(=Nc2ccc(O)cc2)C=C1Cl; type: biochemical, Agaricus xanthodermus
Excerpt: (§2) spectrophotometric electron acceptor reduction on AxPDH

[4] = substrate: O=C1C=CC(=O)C=C1; type: biochemical, Agaricus xanthodermus
Excerpt: as §2

B1: AcPDH (Agaricus campestris) (protein)
chain: AITYQHPDDLPGDVDYDFIVAGGGTAGLVVASRLGENSKWNVLVIEAGPSNKDVFATRVPGLAETLPTSHIDWNYTTVPQQALGGRSLNYSRAMILGGCSTHNGMVYTRGSKDDWNKWADVTGNRDLSWDSILPIMKKVEKFSEDFSDQSVEGHIDPSVHGNDGKLSVVASYTNVSFNDLLLETTKELVDEFPFKLDMNDGNPVGLTWNQYTIDHNAERSSSATAYLESTGDNVHVLLNTRVTRIVPTGKTNFRTVEFAVDAGGPRKQLTAKKEVILSGGFIASPQILMNSGIGDQEALKAVGVDTLVNNPSVGKNVSDQAATLVLFDTTLPNTDFDVDAAIVEWNNSHAGPLATGAPLNHLIWVRLSDDKLSGSDPSSGKDSPHIEFQFSKISHRIPPANVPNQVALPSQDSIGVVIQFSVVNLNSISRGSVSLNDNNPFSHPLIDLNMLGEEQDIAILREGVHSARRMLSSEAFKPFVNGSVHPPANITSDEDLDAFLHTTTKSYLHGVGTLSMSPQNASWGVVDPDFRVKGTTGLRVVDASVIPSVPAGHTQTPVYAFAEYASIVIAKSYN
**Q.** With B1 as the protein, how does the Km [1] read?
**A.** 110 ± 0 µM

**Q.** What about the kcat [1] of the same protein?
**A.** 10.6 ± 0.57 s⁻¹

**Q.** What about the kcat/Km [1] of the same protein?
**A.** 96000 M⁻¹ s⁻¹

**Q.** What about the Km [2] of the same protein?
**A.** 120 ± 10 µM

**Q.** What about the kcat [2] of the same protein?
**A.** 34.8 ± 1.02 s⁻¹

**Q.** What about the kcat/Km [2] of the same protein?
**A.** 303000 M⁻¹ s⁻¹

B2: AxPDH (Agaricus xanthodermus) (protein)
chain: AITYQHPDDLPSNVNYDFIVAGGGTAGLVVASRLSENSDWNILVIEAGPSNKDTPETRVPGLADSLPGSRTDWNYTTIPQDALGGRSLNYSRAKVLGGCSTHNGMVYTRGSEDDWNYWAEVTGDQALSWDSVLPIMKKAEKFSQDFSDQSVDGHIDPAVHGRDGLLSVVASYTNVSFNDLLLQTTKELSDEFPFKLDLNDGKPHELAWTQYTIDHNAERSSSATSYLETTGDNVHVLVNTHVTRIVSAGNGTNFRSVEFAVDSNSPKKVLQAKKELILSAGVIASPQVLMNSGIGGREELQAIGVDTLIDNPSVGKNLSDQAATLLMFDTTLPNTDYDVAAALTEWDKSRSGPMAHGARLNHLTWVRLPDDKLNGSDPSSGKDSPHIEFQFRQISHQLPPADVPNQVQLPDPDSIGVVLQFSVVNLYSISPGSVILNDNDPFANPMIDLNMFGDQKDIAILREGVRSARRMFSSPAFKDVINGTVYPPADVTSDEDLDAFLRTSAESYWHGVGTLSMSPQNASWGVVNPDFRVKGTSGLRVVDASVIPRAPAGHTQVPVYTFAEHASVLIAASYH
**Q.** For B2, which Km [3] is on record?
**A.** 90 ± 10 µM

**Q.** And the kcat [3]?
**A.** 7.65 ± 0.66 s⁻¹

**Q.** What about the kcat/Km [3] of the same protein?
**A.** 85000 M⁻¹ s⁻¹

**Q.** What about the Km [4] of the same protein?
**A.** 3250 ± 510 µM

**Q.** What about the kcat [4] of the same protein?
**A.** 12.9 ± 1.56 s⁻¹

**Q.** What about the kcat/Km [4] of the same protein?
**A.** 4000 M⁻¹ s⁻¹
